Experimental data as given in IntAct's records for PubMed 23665169.

Target: stk25_human STK25 (UniProt O00506)
Sequence (O00506 whole entry, looked up): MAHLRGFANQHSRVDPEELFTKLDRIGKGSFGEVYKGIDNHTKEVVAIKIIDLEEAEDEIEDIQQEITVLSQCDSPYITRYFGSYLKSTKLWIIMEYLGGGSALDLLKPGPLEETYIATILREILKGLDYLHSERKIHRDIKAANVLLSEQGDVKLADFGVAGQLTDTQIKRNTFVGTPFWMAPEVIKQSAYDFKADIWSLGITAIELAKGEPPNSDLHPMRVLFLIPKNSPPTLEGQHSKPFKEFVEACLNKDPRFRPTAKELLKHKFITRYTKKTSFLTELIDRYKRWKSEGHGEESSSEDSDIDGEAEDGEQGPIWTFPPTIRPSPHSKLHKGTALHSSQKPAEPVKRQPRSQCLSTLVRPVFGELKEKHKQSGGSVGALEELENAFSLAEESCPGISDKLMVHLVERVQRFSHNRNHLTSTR

Chain of Programmed cell death protein 10 (Homo sapiens), Q9BUL8 F76D;L80D;M83D (Q9BUL8 whole entry F76D/L80D/M83D): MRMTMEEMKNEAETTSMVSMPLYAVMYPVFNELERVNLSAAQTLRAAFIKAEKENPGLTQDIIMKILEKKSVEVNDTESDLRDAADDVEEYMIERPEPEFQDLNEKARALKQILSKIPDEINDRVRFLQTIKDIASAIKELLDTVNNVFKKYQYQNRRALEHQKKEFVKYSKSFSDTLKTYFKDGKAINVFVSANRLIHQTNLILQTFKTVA

Substance: Programmed cell death protein 10 (Homo sapiens), Q9BUL8 F76D;L80D;M83D
- effect of a mutation on the interaction: decreasing interaction strength
